B1: TPR t1 (parent)
chain: GACCAAUCUGCCCUCAGAGCUCGAGAACAUCUUCGGAUGCAGAGGAGGCAGGCUUCGGUGGCGCGAUAGCGCCAACGUCCUCAACCUCCAAUGCAUCCCACCACAUGAUGAUGCCUGAAGAGCCUUGGUUUUUUG

Variants of: B1
Experiment: polymerase ribozyme fitness, log enrichment relative to wild type (log ratio); higher = more active; in vitro selection for triplet polymerase activity
Summary of the method: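 PCR was used to build mutant libraries for each subunit of a heterodimeric triplet polymerase ribozyme, which were then transcribed. A single in vitro selection round, in triplicate, used a frozen incubation at −7 °C and recovered extended constructs by gel excision, streptavidin beads and RT-PCR. Fitness is the logarithm of genotype enrichment relative to wild-type enrichment, averaged over replicates with inverse-variance weights. The logarithm is base 2, and after Illumina sequencing only genotypes with ≥10 input reads and ≥1 read per output were kept.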

| Variant | polymerase ribozyme fitness (log ratio) |
| --- | --- |
| GACCAAUCUGCCCUCAGAGCUCGAGAACAUCUUCGGAUGCACAGGAGGCAGGCUUCGGUGGCGCGAUAGCGCCAACGUCCUCAACCUCCAAUGCAUCCCACCACAUGACGAUGCCUGAAGAGCCUUGGUUUUUUG | -6.86 |
| GACCAAUCUGCCCUCAGAGCUCGAGAACAUCUUCGGAUGCAAAGGAGGCAGGCUUCGGUGGCGCGAUAGCGCCAACGUCCUCAACCUCCAAUGCAUCCCACCACAUGAUGAUGCCCGAAGAGCCUUGGUUUUUUG | -3.35 |
| GACCAAUCUGCACUCAGAGCUCGAGAACAUCUUCGGAUGCAGAGGAGGCAGGCUUCGGUGGCGCGAUAGCGCCAACGUCCUCAACCUCCAAUGCAUCCCACCACAUGAUAAUGCCUGAAGAGUCUUGGUUUUUUG | -1.84 |
| GACCAAUCUGCCCUCAGAGCUCGAGAACAUCUUCGAAUGAAGAGGAGGCAGGCUUUGGUGGCGCGAUAGCGCCAACGUCCUCAACCUCCAAUGCAUCCCACCACAUGAUAAUGCCAGAAGAGCAGUGGUUUUUUG | -7.28 |
| GACCAAUCUGCCCUCAGAGCUCGAGAACAUCUUCGGAUGCAGAGGAGGCAGGCUUCGGUGUCGCGAUAGCGCCAACGUCCGCAACUUCCAAUGCAUCCCACCACAUGAUGAUGCCUGAAUAGCCUUGGUUUUAUG | -4.06 |
| GACCAAUCUGCCCUCAGAGCUUGAGAACAUCUUCGGAUGCAGGGGAGGCAGGCUUCGGUGUCGCGAUAGCGCCAACGUCCUCAACCUCCAAUGCAUCCCACCACAUGAUGAUGCAUGAAGAGCCUUGGUUUUUUG | -5.75 |
| GACCAAUCUGCCCUCAGAGCUCGAGAACAUCUUCGGGUGCAGAGGAGGCAGGCUUCGGUGGCGUGAUAGCGCCAACGUCCUCAACCUUCAAUGCAUCCCACCACAUGAUGAUGCCUGAAGUGCCUUGGUUUUUUG | -0.585 |
| GACCAAUCUGCCCUCAGAGCUCGAGAACAUCUUCGGAUGCAGAGGAGGUAGGCUUCGGUGGCACGAUAGCGCCAACGUCCUCAACCUCCAAUGCAUCCCACCACAUGAUGAUGCCUGAAGAGCCUUGGUUUUUUG | -1.67 |
| GACCAAUCUGCCCUCAGAGCUCGAGAACAUCUUCGGAUGCAGAGGAGGCUGGCUUGGGUGGCGCGAUAGUGCCAACGCCCUCAACCUCCAAUGCAUCCCACCACAUGAUGAUGCCUGAAGAGCCUUGGUUUUUUG | -5.64 |
| GACCAAUCUGCCCUCAGAGCUCGAGAACAUCUUCGGAUGCAGAGGUGGCAGGCUUCUGUGGCGCGAUAGCGCCAACGUCCUCAACCUCCAAUGCAUCCCACCACAUGAUGAUGCCUGAAGAGCCUUGGUUUAUUG | -0.968 |
| GACCAAUCGGCCCUCAGAGCUCGAGAACAUCUUCGGAUGCAGAGGAGGCAGGCUUCGGUGGCGCGAUAGCGGCAACGUCCUCAACAUCCAAUGCAUCCCACCACAUGAUGAUGCCUGAAGAGCCUUGGUUUUUUG | -1.02 |
| GACCAAUCUGCCCUCAGAGCUCGAGAACAUCUUCGGAUGCAGAGGAGGUAGGUUUCGGUGGCGCGAUAGCGGCAACGUCCUCAACCUCCAAUGCAUCCCACCACAUGAUGAUGUCUGAAGAGCCUUGGUUUUUUG | -3.44 |
| GACCAAUCUGCCCGCAGAGCUCGAGAACAUCUUCGGAUGCAGAGGAGGCAGGCUUCGGUGGCGCGAUAGCGCAAACGUCCUCAACCUCCUAUGCAUCCCACCACAUGAUGAUGCCUGAAGAGCCUUGGUUUUUUG | -3.66 |
| GACCAAUCUCCCCUCAGAGCUCGAGAACAUCUUCGGAUGCACAGGAGGCAGGCUUCGGUGGCGCGAUAGCGCCAACAUCCUCAAAGUCCAAUGCAUCCCACCACAUGAUGAUGACUGAAGAGCCUUGGUUUUUUG | -5.24 |
| GACCAAUCUGCCCUCAGCGCUCGAGAACAUCUUCGGAUGCAGAUGAGGCAGGCUUCGGUGGCGCGAUAGCGCCAACGUCCUCAACCUCCAAUGCAUCCCACCACAUGAUGAUGCCUGAAGAGCCUUGGUUUUUUG | -3.35 |
| GACCAAUCUGCCCUCAGAGAUCGAGAACAUCUUCGGAUGCAGAGGAGGCAGGCUUCGGUGGCGCGAUAGCGCCAACAUCCUCAACCUCCAAUGCAUCCCACCACAUGAUGAUGCCUGAAGAGCCUUGGUUUUUUG | -3.54 |
| GACCAAUCUGUCCUCAGAGCUCGAGAACGUCUUCGGAUGCAGAGGAGGCAGGUUUCGGUGGCGCGAUAGCGCCAACGUCCUCAACCUCCAAUGCAUCCCACCACAUGAUGAUGCCUGAAGAGCCUUGGUUUUUUG | -2.33 |
| GACCAAUCUGCCCUCAGAGCUGGAGAACAUCUUCGGAUGCAGAGGAGGCAGGCUUCGGUGGCGCGAUAGCGCCAACGUCCUCAACCUCCAAUGCAUCCCACCACAUGAUGAUGCCUGAAAAGCCUUGGUUUUUUG | -2.9 |
| GACCAAUCUGCCCUCAGAGCUCGAGAACAUCUUCGGAUGCAGAGGUGGCAGGCUUCGGUGGCGCGAUAGCGCCAACGUCCUCAACCUCCAAUGCAUCCCACCACAUGAUGAUGCCUGAAGAGCAUUGGUUCUUUG | 1.32 |
| GACCCAUCUGCCCUCAGAGCUCGAGAACAUCUUCGGAUGCAGAGGAGGCAGGCUUCGGUGGCGCGAUAGCGCAAACGUCCUCAACCUCCAAUGCAUCCCACCACAUGAUGAUGCCUGAAGAGCCUUGGUUUUUUG | -0.312 |
| GACCAAUCUGCCCUCAGAGCUCGAGAACAUCUUCGGAUGCAGAGGAGGCAUGCUUCGGUGGCGCGAUAGCGCCAACGUCCUCAACCUCCAAUGCAUCCCACCACAUGAUGAUGCCUAAAGAGCCUUGGUUUUUUG | -5.11 |

Reference: the RNAGym collection of RNA variant scans (doi:10.1073/pnas.2313332121)
